Assay results published in US10017580B2, “Humanized anti-Tn-MUC1 antibodies and their conjugates” (ADC THERAPEUTICS S.A., priority 2014, dated 2018).

How the values were obtained:
[1] = test system: ZR-75-1 cell line, which expresses Tn-MUC1; experiment: ZR-75-1 cell binding assay by flow cytometry (protocol 6); conditions: for ZR-75-1 cell binding EC50: flow cytometry, live cells
Experimental: Protocol 6: ZR-75-1 Cell Binding Assay by Flow Cytometry Materials • Wash solution: PBS 0.1% (w/v) sodium azide • Binding buffer: PBS, 10% normal goat serum, 0.1% (w/v) sodium azide) • 96 well U-well microplate Protocol
Exponentially growing cells are suspended by incubation with cell dissociation buffer enzyme-free, Hanks-based (Gibco 13150-016) following the manufacturer's instructions. A cell count/viability is done on a dilution of 10 ul cells+Trypan Blue, 10 ul, with a haemocytomer. The suspension is centrifuged and the cell pellet re-suspended in binding buffer at 3×10^6 per ml. If significant levels of aggregates are present in the cell count, the suspension is filtered to remove aggregates. The cell suspension is dispensed (50 ul/well) in 96 well U-bottom plates and cooled on ice for 10 minutes. Primary antibody (50 ul/well) diluted in binding buffer (typically 1 ug per ml or less) is added to each well and incubated at 4° C. for 1 hour. The microplate is centrifuged 5 min at 300-400 g at 4° C., flicked to remove the supernatant and then the cell pellet re-suspended in 200 uL of wash buffer (PBS, 0.1% sodium azide). Centrifugation and re-suspension are done 4 times in all. After the last centrifugation, cells are re-suspended in 50 uL of binding buffer containing the biotin labelled conjugate 1:250 (kept at −20 C: Biotin-SP-AffiniPure F(ab′)2 Fragment Goat antihuman IgG (H+L); Jackson 109-066-088). Cells are incubated for 1 hour at 4 C, then washed 4 times as before. Cells are resuspended in 50 ul of binding buffer containing Streptavidin, Alexa Fluor® 488 conjugate (Life Technologies s11223) diluted 1:250 and Fixable Viability Dye eFluor® 780 (eBioscience 65-0865) diluted 1:2000, The cells are incubated at 4° C. for 1 hour and then washed 3 times, as above. Cells are then re-suspended in PBS if reading immediately or fixed in 100 ul of paraformaldehyde (2% (w/v) in PBS) and analysed with by flow cytometer (Accuri C6), gating on live cells which have a lower Fixable Viability Dye MFI compared to dead cells.
IgG binding potency to Tn-MUC1 was measured as per protocol 4 and binding to the ZR-75-1 cell line, which expresses Tn-MUC1, was measured as per protocol 6.

[2] = biological target: Tn-MUC1 (16TR-MUC1-Tn); experiment: Tn-MUC1 binding ELISA (protocol 4); design: species or system human; conditions: for Tn-MUC1 binding EC50: ELISA on 16TR-MUC1-Tn coated plate
[3] = Thermal denaturation assay (protocol 5); type: physicochemical; conditions: 50% inactivation temperature, 10 minutes heating, read by antigen-binding ELISA

Tn-MUC1 (16TR-MUC1-Tn), sequence (P15941 141-460 limits assumed): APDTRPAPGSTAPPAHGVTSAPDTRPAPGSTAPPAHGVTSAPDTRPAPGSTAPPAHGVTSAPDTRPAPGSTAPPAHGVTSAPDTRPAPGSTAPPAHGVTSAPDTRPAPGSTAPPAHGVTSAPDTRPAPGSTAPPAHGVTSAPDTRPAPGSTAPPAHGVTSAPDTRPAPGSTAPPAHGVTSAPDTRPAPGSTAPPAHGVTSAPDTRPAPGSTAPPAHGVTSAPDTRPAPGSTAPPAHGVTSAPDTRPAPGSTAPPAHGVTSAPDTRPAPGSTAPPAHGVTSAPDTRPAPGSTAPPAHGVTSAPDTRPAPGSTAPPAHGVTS

B1: Ab6: anti-Tn MUC 1 antibody comprising a VH domain according to SEQ ID NO. 28 and a VL domain according to SEQ ID NO. 33 (antibody, V domains shown)
VH: EVQLVESGAEVKKPGASVEVSCQASGYTFTDHAIHWVRQAPGQGLEWMGHFSPGNTDIKYNDKFKGRVTMTVDRSINTAYMELRRLRSDDTAVYYCKTSTFFFDYWGQGTMVTVSS
VL: DIVMTQSPLSLPVTPGEPASISCKSSQSLLNSGDQKNYLTWYLQKPGQSPQLLIYWASTRESGVPDRFSGSGSGTDFTLKISRVEAEDVGVYYCQNDYSYPLTFGGGTKVEIK
modifications: Synthetic sequence: Humanized antibody heavy chain variable region 5E5RHC9; Synthetic sequence: Humanized antibody light chain variable region 5E5RKB
With B1 the “ZR-75-1 cell binding EC50” value [1] was 0.0413 mg/L, the “Tn-MUC1 binding EC50” value [2] was 0.0198 mg/L and the “TnMUC1 binding potency compared with mouse 5E5 (in words)” value ([2]; Tn-MUC1 binding assay data) was “substantially improved over the mouse 5E5”.

B2: Ab5: anti-Tn MUC 1 antibody comprising a VH domain according to SEQ ID NO. 19 and a VL domain according to SEQ ID NO. 33 (antibody, V domains shown)
VH: EVQLVQSGAEVKKPGESLKISCKISGYIFTDHAIHWVRQMPGKGLEWMGHFSPGNTDIKYNDKFKGQVTLSVDRSINTAYLQWSSLKASDTAIYFCKTSTFFFDYWGQGTRVTVSS
VL: B1 VL
modifications: Synthetic sequence: Humanized antibody heavy chain variable region 5E5RHB10; Synthetic sequence: Humanized antibody light chain variable region 5E5RKB
In the case of B2, the “ZR-75-1 binding potency compared with mouse 5E5 (in words)” value ([1]; flow cytometry EC50 data) is reported as “substantially improved over the mouse 5E5”, the “ZR-75-1 cell binding EC50” value [1] is reported as 0.01842 mg/L and the “Tn-MUC1 binding EC50” value [2] is reported as 0.02687 mg/L. It also gave a Tm [3] of 62.58 °C.

B3: Ab4: anti-Tn MUC 1 antibody comprising a VH domain according to SEQ ID NO. 9 and a VL domain according to SEQ ID NO. 33 (antibody, V domains shown)
VH: QVQLVQSGAEVKKTGSSVKVSCKASGYTFTDHAIHWVRQAPGQALEWMGHFSPGNTDIKYNDKFKGRVTLTVDRSMSTAYMELSSLRSEDTAMYYCKTSTFFFDYWGQGTMVTVSS
VL: B1 VL
modifications: Synthetic sequence: Humanized antibody heavy chain variable region 5E5RHA8; Synthetic sequence: Humanized antibody light chain variable region 5E5RKB
With B3 the “ZR-75-1 cell binding EC50” value [1] was 0.04229 mg/L, the “Tn-MUC1 binding EC50” value [2] was 0.07549 mg/L and the Tm [3] was 65.23 °C.
